What was measured:
Conditions in all cases: tags: amine-coupled to CM5 chip in SPR; soluble in cell assays; chain copies: 2
[1] = target: T1, NGF (nerve growth factor) (human, UniProt P01138 P01138:122-241); experiment: cell_activity; neurite outgrowth, NGF 0.38 nM; SPR binding; TF-1 IC50 0.083 nM
Method: (§1) The neurite outgrowth inhibitory activity of the aptamer obtained in Example 1 was evaluated by using Neuroscreen-1 cell, which is a subclone of PC-12 cells.
(§2) The cells (2500 cells per well) were cultured for one day in an RPMI-1640 medium containing 2.5% horse serum and 1.25% fetal bovine serum in a 96 well flat-bottom plate coated with collagen type IV. […] Two days later, the cytoplasm and nuclei were stained using Cellomics Neurite Outgrowth Kit (manufactured by Thermo Scientific), and neurite length per cell was measured by Cellomics ArrayScan VTI (manufactured by Thermo Scientific). With the neurite length per cell obtained by the addition of NGF alone as inhibitory activity 0%, and that of the cell obtained by NGF free culture for 2 days as inhibitory activity 100%, the inhibitory activity of the aptamer was calculated from the neurite length per cell obtained by culturing with the addition of NGF and the aptamer in mixture. When the inhibitory activity was 0% or below, ‘0%’ is indicated.

[2] = target: T1, NGF (nerve growth factor); experiment: cell_activity; neurite outgrowth, NGF 0.38 nM; SPR binding; TF-1 IC50 0.119 nM
Method: as §1, §2

[3] = target: T1, NGF (nerve growth factor); experiment: cell_activity; neurite outgrowth, NGF 0.38 nM; SPR binding; TF-1 IC50 0.211 nM
Method: as §1, §2

[4] = target: T1, NGF (nerve growth factor); experiment: cell_activity; neurite outgrowth, NGF 0.38 nM; SPR binding; TF-1 IC50 0.072 nM
Method: as §1, §2

[5] = target: T1, NGF (nerve growth factor); experiment: cell_activity; neurite outgrowth, NGF 0.38 nM; not tested by SPR; TF-1 IC50 0.520 nM
Method: as §1, §2

[6] = target: T1, NGF (nerve growth factor); experiment: cell_activity; neurite outgrowth, NGF 0.38 nM; SPR binding; TF-1 IC50 <0.1 nM
Method: as §1, §2

[7] = target: T1, NGF (nerve growth factor); experiment: cell_activity; neurite outgrowth, NGF 0.38 nM; SPR binding; TF-1 IC50 0.062 nM
Method: as §1, §2

[8] = target: T1, NGF (nerve growth factor); experiment: cell_activity; neurite outgrowth, NGF 0.38 nM; SPR binding; TF-1 IC50 0.09 nM
Method: as §1, §2

[9] = target: T1, NGF (nerve growth factor); experiment: cell_activity; neurite outgrowth, NGF 0.38 nM; SPR binding; TF-1 IC50 0.074 nM
Method: as §1, §2

[10] = target: T1, NGF (nerve growth factor); experiment: cell_activity; neurite outgrowth, NGF 0.38 nM; SPR binding; TF-1 IC50 0.110 nM
Method: as §1, §2

[11] = target: T1, NGF (nerve growth factor); experiment: cell_activity; neurite outgrowth, NGF 0.38 nM; not tested by SPR; TF-1 IC50 0.051 nM
Method: as §1, §2

[12] = target: T1, NGF (nerve growth factor); experiment: cell_activity; neurite outgrowth, NGF 0.38 nM; SPR binding; TF-1 IC50 0.105 nM
Method: as §1, §2

[13] = target: T1, NGF (nerve growth factor); experiment: cell_activity; neurite outgrowth, NGF 1.1 nM; SPR binding; TF-1 IC50 11.1 nM
[14] = target: T1, NGF (nerve growth factor); experiment: cell_activity; neurite outgrowth, NGF 0.38 nM; SPR binding; TF-1 IC50 1.0 nM
Method: as §1, §2

[15] = target: T1, NGF (nerve growth factor); experiment: cell_activity; neurite outgrowth, NGF 1.1 nM; SPR binding; TF-1 IC50 3.2 nM
Method: as §1, §2

[16] = target: T1, NGF (nerve growth factor); experiment: cell_activity; neurite outgrowth, NGF 1.1 nM; SPR binding; TF-1 IC50 1.4 nM
Method: as §1, §2

T1 sequence (P01138 122-241, one chain of several): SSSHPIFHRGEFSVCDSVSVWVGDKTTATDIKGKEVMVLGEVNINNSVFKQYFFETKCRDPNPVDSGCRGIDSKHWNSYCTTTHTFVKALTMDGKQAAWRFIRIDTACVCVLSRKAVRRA

B1: aptamer ID 26(50) (mixed)
RNA: GGGAGACUCGCCAGAGUUGAAAGAAACCCAAAUAAGUGUGCGCAC
modifications: 2'-F pyrimidines except 2'-OMe at 7,11,12,17,33,45, dT at 8,37 and dC at 9,29; 2'-OMe purines except 2'-OH at 3,19,20,26; 5' idT and 3' idT
Binder B1 has an IC50 [1] of 0.046 nM.

B2: aptamer ID 26(63) (mixed)
RNA: B1 RNA
modifications: 2'-F pyrimidines except 2'-OMe at 7,8,9,11,12,17,18,33,37,39,45 and dC at 27,29; 2'-OMe purines except 2'-OH at 3,19,20,26; 5' idT and 3' idT
B2 was tested, and the IC50 [2] was 0.139 nM.

B3: aptamer ID 26(31) (ssRNA)
RNA: B1 RNA
modifications: 2'-F pyrimidines except 2'-OMe at 7; 2'-OMe purines except 2'-OH at 3,19,20,26; 5' idT and 3' idT
In the case of B3, the IC50 [3] is reported as 0.3 nM.

B4: aptamer ID 26(52) (ssRNA)
RNA: B1 RNA
modifications: 2'-F pyrimidines except 2'-OMe at 7,8,9,11,12,17,18,33,37,39,45; 2'-OMe purines except 2'-OH at 3,19,20,26; 5' idT and 3' idT
Binder B4 has an IC50 [4] of 0.101 nM.

B5: aptamer ID 26(66) (ssRNA)
RNA: B1 RNA
modifications: 2'-F pyrimidines; 2'-OMe purines except 2'-OH at 3,19,20,26; 5' PEG40GS2 (ssH linker); 3' idT
Work on B5 yielded an IC50 [5] of 0.252 nM.

B6: aptamer ID 26(38) (ssRNA)
RNA: B1 RNA
modifications: 2'-F pyrimidines except 2'-OMe at 7; 2'-OMe purines except 2'-OH at 3,19,20,26; PS between 20 and 21; 5' idT and 3' idT
B6 gave an IC50 [6] of 0.145 nM.

B7: aptamer ID 26(49) (ssRNA)
RNA: B1 RNA
modifications: 2'-F pyrimidines except 2'-OMe at 7,8,9,11,12,17,18,33,37,45; 2'-OMe purines except 2'-OH at 3,19,20,26; 5' idT and 3' idT
B7 gave an IC50 [7] of 0.059 nM.

B8: aptamer ID 26(14) (ssRNA)
RNA: B1 RNA
modifications: 2'-F pyrimidines; 2'-OMe purines except 2'-OH at 3,5,19-21,24,26; 5' idT and 3' idT
B8 showed an IC50 [8] of 0.082 nM.

B9: aptamer ID 26(13) (ssRNA)
RNA: B1 RNA
modifications: 2'-F pyrimidines; 2'-OMe purines except 2'-OH at 3,5,19,20,22,24,26; 5' idT and 3' idT
For B9, the IC50 [9] was 0.039 nM.

In the case of GGGAGACUCGCCAGAGUUGAAAGAAACCCAAAUAAGUGUGCGCAC (ssRNA, 2'-F pyrimidines; 2'-OMe purines except 2'-OH at 3,19,20,24; 5' idT and 3' idT) [aptamer ID 26(20)], the IC50 [10] is reported as 0.016 nM.

B10: aptamer ID 26(64) (ssRNA)
RNA: B1 RNA
modifications: 2'-F pyrimidines except 2'-OMe at 7,8,9,11,12,17,18,33,37,39,45; 2'-OMe purines except 2'-OH at 3,19,20,26; 5' PEG80TS4 (ssH linker); 3' idT
Work on B10 yielded an IC50 [11] of 0.102 nM.

Binder GGGAGACUCGCCAGAGUUGAAAGAAACCCAAAUAAGUGUGCGCAC (ssRNA, 2'-F pyrimidines; 2'-OMe purines except 2'-OH at 3,19,20; 5' idT and 3' idT) [aptamer ID 26(18)] has an IC50 [12] of 0.084 nM.

B11: aptamer ID 10 (ssRNA)
RNA: GGGAGAACUUCGCCAGAAGUUUGAAAGAAACCCAAAUUAAAAAGUAUGUGCGCAUACA
modifications: 2'-F at all pyrimidines
B11 was tested, and the IC50 [13] was < 3 nM.

For GGGAGACUCGCCAGAGUUGAAAGAAACCCAAAUAGUGUGCGCAC (ssRNA, 2'-F at all pyrimidines) [aptamer ID 29], the IC50 [14] was < 0.3 nM.

For GGGAGACUCGCAGAGUUGAAAGAAACCCAAAUAAAGUGUGCGCACA (ssRNA, 2'-F at all pyrimidines) [aptamer ID 27], the IC50 [15] was < 1 nM.

With GGGAGACUCGCAGAGUUGAAAGAAACCCAAAUAAGUGUGCGCAC (ssRNA, 2'-F at all pyrimidines) [aptamer ID 28] the IC50 [16] was < 1 nM.

From US20130052176, “APTAMER FOR NGF AND USE THEREOF” (SHIONOGI & CO., LTD, published 2013)
